According to article PMC3755989, “Identification of Amino Acid Residues of ERH Required for Its Recruitment to Nuclear Speckles and Replication Foci in HeLa Cells” (PLoS ONE, 2013):

Target: T1, FLAG-tagged wild-type human ERH (enhancer of rudimentary homolog) (human, UniProt P84090 1-104)
T1 construct: wild-type human ERH, expressed from pQE30/ERH-FLAG (formerly pQE30/ER-FLAG); also called ERH-FLAG; wild-type ERH
Test: pull-down; GST-PDIP46/SKAR[L7]- or GST-Ciz1[B]-coated Glutathione-Agarose beads incubated with equal amounts of purified FLAG-tagged ERH forms; binding buffer 20 mM HEPES pH 7.4, 50 mM NaCl, 75 mM KCl, 1 mM DTT, 1 mM EDTA, 10% glycerol, 0.05% Triton X-100; western blotting with anti-FLAG antibody
Details: both partners purified

binding result: binds
B1: GST-tagged fragment L7 of human PDIP46/SKAR (domain or fragment)
chain: NKEEPPKELPAAEPVLSPLEGTKMTVNNLHPRVTEEDIVELFCVCGALKRARLVHPGVAEVVFVKKDDAITAYKKYNNRCLDGQPMKCNLHMNGNVITSDQPILLRLSDSPSMKKESELPRRVNSASSSNPPAEVDPDTILKALFKSSGASVTTQPTEFKIKL
notes: fragment L7 of human PDIP46/SKAR comprising residues 259-421, expressed from pGEX-4T-1/PDIP46/SKAR[L7]; also called GST-PDIP46/SKAR[L7]; PDIP46/SKAR[L7]; source: E. coli XL1 Blue MRF', batch purified on Glutathione-Agarose beads
